Source: patent US20120282637A1 (Sanofi, published 2012)
Where “and” joins values, the source holds several entries; their conditions need not be identical. Identical values can stand only once.

Tests used:
RAGE C2 domain = biological target: T1, RAGE C2 domain (UniProt Q15109 235-327, limits assumed); experiment: domain mapping, Table 1
T1 construct: domain: C2 domain

RAGE-Fc [1] = biological target: T2, RAGE-Fc (human, UniProt Q15109 23-344, limits assumed); experiment: competition ELISA, hRAGE-HMGB1 interaction
T2 construct: also called hRAGE; not shown: Fc part, detected with anti-hIgG Fc-specific conjugate
T2 sequence (Q15109 23-344 limits assumed): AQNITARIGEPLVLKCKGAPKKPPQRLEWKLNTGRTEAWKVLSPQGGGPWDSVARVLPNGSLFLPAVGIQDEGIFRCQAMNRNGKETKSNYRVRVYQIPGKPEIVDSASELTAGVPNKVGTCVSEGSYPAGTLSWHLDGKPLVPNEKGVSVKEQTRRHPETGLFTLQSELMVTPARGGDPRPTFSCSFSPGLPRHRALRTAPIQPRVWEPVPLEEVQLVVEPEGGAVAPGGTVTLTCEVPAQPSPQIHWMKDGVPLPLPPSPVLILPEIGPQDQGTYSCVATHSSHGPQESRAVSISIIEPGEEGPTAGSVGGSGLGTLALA

RAGE-Fc [2] = biological target: T2, RAGE-Fc; experiment: competition ELISA, hRAGE-S100B interaction
RAGE-Fc [3] = biological target: T2, RAGE-Fc; experiment: competition ELISA, hRAGE-S100A6 interaction
RAGE-Fc [4] = biological target: T2, RAGE-Fc; experiment: competition ELISA, RAGE-HMGB1 interaction
RAGE-Fc [5] = biological target: T2, RAGE-Fc; experiment: competition ELISA, RAGE-S100B interaction
RAGE-Fc [6] = biological target: T2, RAGE-Fc; experiment: competition ELISA against S100A6, mAb 10 µg/mL
Procedure: (§1) For the S100A6 Competition ELISA Assay wells have been coated with S100A6 at 0.5 μg/well. Thereafter, RAGE-Fc at 10 μg/mL and competing mAb at 10 μg/mL have been pre-incubated at room temperature for 30 min. The mixture was transferred into S100A6-coated plates and incubated under agitation at room temperature for 2 hours. Bound RAGE-Fc was detected with anti-hIgG Fc-specific-POD using TMB (3, 3′, 5, 5′-Tetramethylbenzidine) at 450 nm.

RAGE-Fc [7] = biological target: T2, RAGE-Fc; experiment: competition ELISA, RAGE-S100A6 interaction
RAGE-Fc [8] = biological target: T2, RAGE-Fc; experiment: competition ELISA, RAGE-Fc binding to coated S100A6
Procedure: as §1
For this, coating with S100A6 was carried out as detailed above. RAGE-Fc at 10 μg/mL was incubetd with competing mAb (2-fold serial dilutions starting at 100 μg/ml at room temperature for 2 hours. Binding was detected by anti IgG Fc-specific antibody peroxydase conjugate using TMB1 component HRP at 450 nm.

[9] = biological target: T3, sRAGE (V-C1-C2) lot LP08062 (human, UniProt Q15109 23-331, limits assumed); experiment: SPR (Biacore), mAb captured on anti-mouse Fc, sRAGE 15 nM, Langmuir 1:1
T3 construct: domain: V-C1-C2; also called Human RAGE; LP08062 (Rage)
T3 sequence (Q15109 23-331 limits assumed): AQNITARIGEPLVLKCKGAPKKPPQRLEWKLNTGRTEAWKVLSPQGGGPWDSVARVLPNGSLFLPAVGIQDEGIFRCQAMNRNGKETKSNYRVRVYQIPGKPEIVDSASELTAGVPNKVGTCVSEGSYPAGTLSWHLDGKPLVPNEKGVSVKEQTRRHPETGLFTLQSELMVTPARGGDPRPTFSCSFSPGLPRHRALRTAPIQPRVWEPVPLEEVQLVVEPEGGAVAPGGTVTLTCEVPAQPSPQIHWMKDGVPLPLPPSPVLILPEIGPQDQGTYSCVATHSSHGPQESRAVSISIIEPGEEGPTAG
Procedure: The assay is based on a capture assay using immobilized anti-mouse Fc IgG on CM5 chip. For immobilization of anti-Fc antibody HBS-EP was used as running buffer. Standard amine coupling to a CM5 chip was carried out at a contact time of 11 min and a flow rate of 10 μl/min. 10 mM Sodium Acetate pH 5.0 was used as immobilization buffer. The protein concentration (anti-mouse Fc, Biacore BR-1008-38) was 100 μg/mL.
For binding analysis SN anti-RAGE mAb diluted in running buffer at 1/10 (flow rate 5 μl/min) and sRAGE (V-C1-C2) lot LP08062 diluted in running buffer at 15 nM (flow rate 50 μl/min) was used as […], respectively (running buffer: HBS-P+BSA 12 mg/mL+CM Dextran 12 mg/mL and Regeneration solution: 10 mM Glycine pH 1.7). Langmuir 1:1 analysis was used as fitting model.

rat sRAGE = rat sRAGE (rat, UniProt Q63495 23-341, limits assumed); experiment: ELISA, O.D. 450 nm, one bar per species; plate format and antibody concentration not given
Sequence of rat sRAGE (Q63495 23-341 limits assumed): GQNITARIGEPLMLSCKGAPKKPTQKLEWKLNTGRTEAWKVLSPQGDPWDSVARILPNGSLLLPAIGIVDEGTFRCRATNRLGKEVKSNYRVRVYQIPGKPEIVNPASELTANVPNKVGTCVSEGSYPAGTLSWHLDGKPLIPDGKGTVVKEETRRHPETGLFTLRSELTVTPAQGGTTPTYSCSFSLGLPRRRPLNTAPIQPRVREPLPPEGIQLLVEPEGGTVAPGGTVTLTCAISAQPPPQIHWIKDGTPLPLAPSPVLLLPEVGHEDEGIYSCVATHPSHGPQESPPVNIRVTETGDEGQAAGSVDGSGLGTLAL

mouse sRAGE = mouse sRAGE (mouse, UniProt Q62151 23-340, limits assumed); experiment: as above
Sequence of mouse sRAGE (Q62151 23-340 limits assumed): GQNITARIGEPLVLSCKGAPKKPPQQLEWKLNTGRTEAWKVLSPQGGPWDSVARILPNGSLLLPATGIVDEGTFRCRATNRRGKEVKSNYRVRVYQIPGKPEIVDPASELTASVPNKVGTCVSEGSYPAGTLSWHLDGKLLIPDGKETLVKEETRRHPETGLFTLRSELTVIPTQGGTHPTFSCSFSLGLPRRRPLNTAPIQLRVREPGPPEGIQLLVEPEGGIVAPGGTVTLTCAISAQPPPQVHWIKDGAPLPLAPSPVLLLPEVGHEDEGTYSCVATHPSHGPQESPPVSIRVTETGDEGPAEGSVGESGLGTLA

RAGE V domain = biological target: T4, RAGE V domain (UniProt Q15109 23-121, limits assumed); experiment: domain mapping, Table 1
T4 construct: domain: V domain
T4 sequence (Q15109 23-121 limits assumed): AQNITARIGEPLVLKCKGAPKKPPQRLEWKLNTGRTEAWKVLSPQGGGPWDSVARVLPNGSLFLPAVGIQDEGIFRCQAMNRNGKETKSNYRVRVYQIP

RAGE V-C1 domains = biological target: T5, RAGE V-C1 domains (UniProt Q15109 23-233, limits assumed); experiment: domain mapping, Table 1
T5 construct: domain: V-C1 domains
T5 sequence (Q15109 23-233 limits assumed): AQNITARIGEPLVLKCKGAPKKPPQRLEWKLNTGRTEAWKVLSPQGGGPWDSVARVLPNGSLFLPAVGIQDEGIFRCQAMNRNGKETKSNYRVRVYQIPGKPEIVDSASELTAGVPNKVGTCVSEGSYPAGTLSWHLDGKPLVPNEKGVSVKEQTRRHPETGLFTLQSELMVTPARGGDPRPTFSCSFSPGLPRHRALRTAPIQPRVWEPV

T1 sequence (Q15109 235-327 limits assumed): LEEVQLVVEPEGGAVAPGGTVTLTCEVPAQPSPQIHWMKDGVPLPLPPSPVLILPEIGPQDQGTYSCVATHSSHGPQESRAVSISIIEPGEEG

Binder	binding result (RAGE C2 domain)	IC50 (RAGE-Fc [1])	IC50 (RAGE-Fc [2]) [µg/mL]	maximum inhibitory effect (RAGE-Fc [3]) [%]	IC50 (RAGE-Fc [4]) [nM]	IC50 (RAGE-Fc [5]) [nM]	inhibitory effect (RAGE-Fc [6]) [%]	IC50 (RAGE-Fc [7]) [nM]	IC50 (RAGE-Fc [8])	Kd [9] [nM]	koff [9] [s⁻¹]	kon [9] [M⁻¹ s⁻¹]	binding result (rat sRAGE)	binding result (mouse sRAGE)	binding result (RAGE V domain)	binding result (RAGE V-C1 domains)
158 RAGE-1 (antibody, V domains shown, Anti-RAGE monoclonal antibody from a hybridoma, captured by anti-mouse Fc; also called LP08105) VH: QIQLVQSGPELKKPGETVKISCKASGYTFTDYSMHWVKQAPGKGLKWMGWINTETGEPTYADDFKGRFAFSLETSASTAYLLINNLKTEDTATYFCARDYLYYYAMDYWGQGTSVTVSS VL: DVVLTQTPLSLPVNIGDQASISCKSTKSLLNSDGFTYLDWYLQKPGQSPQLLIYLVSNRFSGVPDRFSGSGSGTDFTLKISRVEAEDLGVYYCFQSNYLPLTFGGGTKVEIK	no binding	0.29 µg/mL and 1.39 nM	0.109	≤ 50	1.4	0.7	> 20	45.3	6.79 µg/mL	0.629	0.00253	4.02e+06	no binding (tested: not given)	no binding (tested: not given)	–	–
240 RAGE-1 (antibody, V domains shown, Anti-RAGE monoclonal antibody from a hybridoma, captured by anti-mouse Fc; also called LP08108) VH: QIQLVQSGPELKKPGETVKISCKASGYTFTDYSMHWVKQAPGKGLKWMGWINTETGEPTYADDFKGRFAFSLETSASTAYLQINNLKNEDTATYFCARDYLYYYAMDYWGQGTSVTVSS VL: DVVLTQTPLSLPVSIGDQASISCKSTKSLLNSDGFTYLDWYLQKPGQSPQLLIYLVSNRFSGVPDSFSGSGSGTDFTLKISRVEAEDLGVYYCFQSNYFPLTFGGGTTLEIK	no binding	0.31 µg/mL and 2.06 nM	0.123	≤ 50	2.1	0.8	> 20	44.4	6.66 µg/mL	0.222	0.000769	3.47e+06	no binding (tested: not given)	no binding (tested: not given)	–	–
164 RAGE-1 (antibody, V domains shown, Anti-RAGE monoclonal antibody from a hybridoma, captured by anti-mouse Fc; also called LP08106; Protein 164 RAGE-1) VH: not shown VL: NIVMTQSPKSMSMSVGERVTLSCKASENVGTYVSWYQQKPEQSPKLLIYGASNRYTGVPDRFTGSGSATDFTLTISSVQAEDLADYHCGQSYTYPYTFGGGTKLEIK	–	–	–	–	–	–	–	–	–	1.13	0.00203	1.8e+06	–	–	no binding	no binding

Other lines, results leading:

binding result (RAGE C2 domain)	IC50 (RAGE-Fc [1])	IC50 (RAGE-Fc [2]) [µg/mL]	maximum inhibitory effect (RAGE-Fc [3]) [%]	IC50 (RAGE-Fc [4]) [nM]	IC50 (RAGE-Fc [5]) [nM]	inhibitory effect (RAGE-Fc [6]) [%]	IC50 (RAGE-Fc [7]) [nM]	IC50 (RAGE-Fc [8])	Kd [9] [nM]	koff [9] [s⁻¹]	kon [9] [M⁻¹ s⁻¹]	binding result (rat sRAGE)	binding result (mouse sRAGE)	binding result (RAGE V domain)	binding result (RAGE V-C1 domains)	Binder
–	0.272 µg/mL	0.208	–	1.79	1.37	–	34.6	5.2 µg/mL	–	–	–	–	–	–	–	Control XT-M4 (antibody, V domains shown) VH: EVQLVESGGGLVQPGRSLKLSCVVSGFTFNNYWMTWIRQTPGKGLEWVASINNSGDNTYYPDSVKDRFTISRDNAKSTLYLQMNSLRSEDTATYYCTRGGDITTGFDYWGQGVMVTVSS VL: DIQMTQSPSSMSVSLGDTITITCRASQDVGIYVNWFQQKPGKSPRRMIYRATNLADGVPSRFSGSRSGSIYSLTISSLESEDVADYHCLEFDEHPLTFGSGTKVEIK
–	–	–	≤ 50	–	–	> 20	7.7	1.16 µg/mL and 7.73 nM	1.87	0.00539	2.89e+06	–	–	no binding	no binding	56 RAGE-1 (antibody, V domains shown, Anti-RAGE monoclonal antibody from a hybridoma, captured by anti-mouse Fc; also called LP08103; Protein 56 RAGE-1) VH: QVQLQQSGPELVKPGASVRISCKASGYTFTSYFIHWVKQRPGQGLEWIGWIYPGNVNTKYNEKFKDKATLTADKSSSTAYMQLSNLTSEDSAVYFCVRGQLGDYWGQGITLTVSS VL: DIVMTQSQKFMSTSVGDRVSVTCKASQNVGINVAWYQQKPGQSPKALIYSASYRYSGVPDRFTGSGSGTDFTLIISNVQSEDLAEYFCQQYNNYPRTFGGGTKLEIK
